# Publication PMC12314576, “The Actin‐Binding Prolyl‐Isomerase Par17 Sustains Its Substrate Selectivity by Interdomain Allostery” (Proteins, 2025)
# Tested on: T1, C[C@H](NC(=O)CCC(=O)O)C(=O)N[C@@H](CCCCN)C(=O)N1CCC[C@H]1C(=O)N[C@@H](Cc1ccccc1)C(=O)Nc1ccc([N+](=O)[O-])cc1
# T1 construct: GST-His6 (PreScission site) (N, cleaved yes); made in house; host or cells: E. coli BL21 (DE3) T1r
# Assay: Protease-coupled isomerase assay (PPIase assay) with the catalytic domain
# Type: biochemical, human
# Settings: other: as quoted in running text; pH 6.8; 10.0 °C
# Method: To determine the catalytic efficiency and substrate specificity of Par14 and Par17, we performed a protease‐coupled assay. In this assay, the trans form of a para‐nitroaniline (pNA) tagged model substrate is cleaved by chymotrypsin, and the resulting change in absorption at 390 nm due to free pNA is measured. When the model substrate is added to the protease‐containing buffer, all trans‐Xaa‐Pro isomers are immediately cleaved by chymotrypsin. Therefore, the extent of the first signal burst observed in the absorption spectrum correlates with the amount of trans isomers of the model substrate formed during the experimental dead time. […] The newly formed trans‐Xaa substrates are immediately cleaved, and isomerization can thus be monitored over time (Figure 2). Eighteen different substrate peptides with varying amino acids at the Xaa position (Suc‐Ala‐Xaa‐Pro‐Phe‐pNa) were measured to determine the isomerase activity and substrate selectivity of Par14 (Par17Δ1–25), Par17, and the catalytic domain (Par17Δ1–60) (Table S1). […]
# We determined the isomerase activity using the PPIase assay described by. […] A baseline was recorded for 5 min (Cary 100Bio UV/Vis spectrophotometer, Varian/Agilent, Santa Clara, US, λ: 390 nm, bandwidth: 1.0 nm, average time between measurements: 0.5 s, temperature: 10°C). […] The solution was mixed by inverting the cuvette three times and the reaction was recorded for 15 min. […]
# Sequence of PPIase domain (Par17Δ1-60) (Homo sapiens) (chain, as listed by the source mutant): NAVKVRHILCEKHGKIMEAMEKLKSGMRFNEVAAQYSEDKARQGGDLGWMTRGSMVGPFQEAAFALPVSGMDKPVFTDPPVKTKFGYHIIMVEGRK
substance,measurement,value
PPIase domain (Par17Δ1-60) (Homo sapiens),kcat/Km,3700 M⁻¹ s⁻¹
